In publication PMC12556795:

Key:
[1] = biological target: 60S ribosomal subunit (rabbit) (rabbit (endogenous in reticulocyte lysate)) (UniProt P19949)
[2] = biological target: 60S ribosomal subunit (rabbit) (rabbit (endogenous in reticulocyte lysate)) (UniProt P19949); remark: listed apart in the source
[3] = biological target: DCC C-tail ΔP3 protein (residues 1121-1424) (H. sapiens) (UniProt P43146); assay: other fluorescence titration; initial fluorescence read on the MST instrument; Cy5-labelled ΔP3 at 5 nM, 60S subunits titrated from 5 uM to 0.15 nM; 20 mM Tris-HCl pH 7.5, 100 mM KCl, 2 mM Mg(OAc)2, 1 mM DTT, 0.5 mM EDTA, 0.25 M sucrose; 25 °C; 1:1 binding model; KD values called relative
[4] = biological target: DCC C-tail N29+P1 protein (residues 1121-1167) (H. sapiens) (UniProt P43146); assay: MST; Cy5-labelled DCC protein (target) at 5 nM, purified 60S subunits (ligand) titrated from 5 uM to 0.15 nM over 16 capillaries; 20 mM Tris-HCl pH 7.5, 100 mM KCl, 2 mM Mg(OAc)2, 1 mM DTT, 0.5 mM EDTA, 0.25 M sucrose; 25 °C; 1:1 binding model; KD values called relative, not absolute (limited by 60S solubility)
[5] = biological target: DCC C-tail ΔN29+P1 protein (residues 1168-1447) (H. sapiens) (UniProt P43146); assay: as above
Chain of DCC C-tail ΔN29+P1 protein (residues 1168-1447) (H. sapiens) (P43146 1168-1447, stated change not applied): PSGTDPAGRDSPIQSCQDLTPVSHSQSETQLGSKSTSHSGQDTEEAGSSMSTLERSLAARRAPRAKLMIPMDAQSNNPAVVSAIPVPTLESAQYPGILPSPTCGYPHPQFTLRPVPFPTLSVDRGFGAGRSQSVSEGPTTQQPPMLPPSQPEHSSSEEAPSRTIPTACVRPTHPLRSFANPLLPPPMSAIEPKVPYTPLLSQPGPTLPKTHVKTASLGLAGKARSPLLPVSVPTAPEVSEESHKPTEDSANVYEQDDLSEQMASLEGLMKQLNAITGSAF

Chain of DCC C-tail ΔP3 protein (residues 1121-1424) (P43146 1121-1424, stated change not applied): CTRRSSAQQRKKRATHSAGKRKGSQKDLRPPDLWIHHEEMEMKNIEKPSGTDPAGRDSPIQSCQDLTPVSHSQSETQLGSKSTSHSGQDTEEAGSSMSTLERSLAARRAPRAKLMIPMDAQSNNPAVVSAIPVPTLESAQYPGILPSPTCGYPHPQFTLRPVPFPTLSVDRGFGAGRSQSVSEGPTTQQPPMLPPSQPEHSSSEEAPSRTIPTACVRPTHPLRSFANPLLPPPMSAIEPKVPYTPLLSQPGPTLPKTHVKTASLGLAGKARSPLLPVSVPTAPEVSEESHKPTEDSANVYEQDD
Chain of DCC C-tail ΔP3 protein (residues 1121-1424) (H. sapiens) (P43146 1121-1424, stated change not applied): as above
Chain of DCC C-tail N29+P1 protein (residues 1121-1167) (P43146 1121-1167): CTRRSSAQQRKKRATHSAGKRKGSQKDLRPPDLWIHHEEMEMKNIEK
Chain of DCC C-tail N29+P1 protein (residues 1121-1167) (H. sapiens) (P43146 1121-1167): as above

Substance: DCC C-tail ΔP3 protein (residues 1121-1424) (from UniProt P43146 1121-1424) (domain or fragment)
- inhibition of in vitro translation of a luciferase reporter mRNA in rabbit reticulocyte lysate by 3 μM DCC protein (% inhibition of translation) [1]: 92

Substance: DCC C-tail N29+P1 protein (residues 1121-1167) (from UniProt P43146 1121-1167) (domain or fragment)
- decrease of in vitro translation of a luciferase reporter mRNA in rabbit reticulocyte lysate by the DCC protein (3 and 6 μM) (% decrease of translation) [2]: 90

Substance: DCC C-tail N29+P1 KRK→AAA protein (residues 1121-1167, alanines at 1140 to 1142) (from UniProt P43146 1121-1167) (domain or fragment)
- decrease of in vitro translation of a luciferase reporter mRNA in rabbit reticulocyte lysate by the DCC protein (3 and 6 μM) (% decrease of translation) [2]: 20

Substance: 60S ribosomal subunit (rabbit) (from UniProt P19949 1-297) (complex)
- Kd [3]: 68.4 nM
- Kd [4]: 80.1 nM
- Kd [5]: 285 nM
